Data taken from US20240241135A1 (SENBOLL BIOTECHNOLOGY, published 2024).

T1: recombinant human regenerating islet-derived protein 1α (REG1A) (human, UniProt P05451 23-166, limits assumed)
T1 construct: also called recombinant human REG1A; recombinant REG1A
T1 sequence (looked up): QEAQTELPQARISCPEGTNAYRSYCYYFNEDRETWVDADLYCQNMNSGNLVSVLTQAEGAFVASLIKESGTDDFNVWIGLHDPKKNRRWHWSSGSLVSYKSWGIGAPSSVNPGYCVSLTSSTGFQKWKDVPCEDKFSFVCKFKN

B1: antibody 4H8F1 (antibody, V domains shown)
VH: QVTLKESGPGILQPSQTLSLTCSFSGFSLSTSGMSVGWIRQPSGKGLEWLAHIWWNDDKFYNPALKSRLTISKDTSKNQIFLKIASVVTADSATYYCARIEEGWFAYWGQGTLVTVST
VL: SIVMTQTPKFLLVSVGDRVTITCKASQTMSNDVAWYQQKPGQSPKLLIYYASNRYTGVPDRFTGSGYGTDFTFTISTVQAEDLAVYFCQQDYSSPLTFGAGTKLELKR
notes: Mouse monoclonal from hybridoma, stated mouse IgG1/Kappa; also called 4H8F1-biotin; Antibody 1
B2: antibody 11D11B11 (antibody, mouse IgG2a, kappa, V domains shown)
VH: DVKLVESGGGLVKPGGSLKLSCAASGFTFSSFSMSWFRQTPDKRLEWVATISSGGSSTYYPDSVKGRFTISRDNAKNTLYLQMTSLKSEDTAIFYCRGGYYGNYDPLDYWGQGTSVTVSA
VL: DIVMIQSQKFMSTSVGDRVSITCTASHNVDSNVAWYQQKPGQSPQALIYSASYRYSGVPDRFTGSGSGTDFTLTINNVQSEDLAEYFCQQYNSYPLTFGGGTRLEIKR
notes: Mouse monoclonal from hybridoma, stated mouse IgG1/Kappa; Used unlabelled as capture and biotin-labelled as detection antibody; also called 11D11B11-biotin
B3: antibody 12F12A10 (antibody, V domains shown)
VH: QVQLQQSATELARPGASVKMSCKASGYTFTSYMMHWVKQRPGQGLEWIGYINPSSGYTDYNQKFKDKTTLTADKSSSTAYMQLSSLTSEDSAVYYCARYRYPHYFDYWGQGTTLTVSS
VL: QIVLTQSPAIMSASPGEKVTMTCSASSSVSYIHWYQQKSGTSPKRWIYDTSKLASGVPARFSGSGSGTSYSLTISSMEAEDAAIYYCQQWSSNPPTFGAGTKLELKR
notes: Mouse monoclonal from hybridoma, stated mouse IgG1/Kappa; also called 12F12A10-biotin; Antibody 2

Each binder was assayed against T1, recombinant human regenerating … (assay: sandwich ELISA; capture 25F3C4; REG1A 100.00 ng/mL).
Outline: (§1)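 Sandwich ELISA with the capture monoclonal antibody coated overnight at 4 °C in PBS, then blocking for 2 h at 37 °C. Recombinant human REG1A in basic diluent (100 μL per well) was incubated for 1 h at 37 °C. It was then detected with a horseradish peroxidase-based detection antibody system and TMB substrate for 15 min at 37 °C, and stopped with 0.2M sulfuric acid. OD value is the absorbance at 450 nm minus that at 620/630 nm.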

Row | Binder | OD value
1 | B1 | 0.086 OD
2 | B2 | 0.089 OD
3 | B3 | 4.48 OD

These binders were tested against T1, recombinant human regenerating … (assay: sandwich ELISA; capture 4H8F1; REG1A 100.00 ng/mL).
Outline: as §1

Row | Binder | OD value
4 | B1 | 0.09 OD
5 | B2 | 4.24 OD
6 | B3 | 4.33 OD

The binders below were run against T1, recombinant human regenerating … (assay: sandwich ELISA; capture 25F3C4; REG1A 1.23 ng/mL).
Outline: as §1

Row | Binder | OD value
7 | B1 | 0.087 OD
8 | B2 | 0.071 OD
9 | B3 | 3.76 OD

Each binder was assayed against T1, recombinant human regenerating … (assay: sandwich ELISA; capture 4H8F1; REG1A 33.33 ng/mL).
Outline: as §1

Row | Binder | OD value
10 | B1 | 0.081 OD
11 | B2 | 4.22 OD
12 | B3 | 4.33 OD

Each binder was assayed against T1, recombinant human regenerating … (assay: sandwich ELISA; capture 25F3C4; REG1A 0 ng/mL (blank)).
Outline: as §1

Row | Binder | OD value
13 | B1 | 0.076 OD
14 | B2 | 0.074 OD
15 | B3 | 0.093 OD

Each binder was assayed against T1, recombinant human regenerating … (assay: sandwich ELISA; capture 25F3C4; REG1A 3.70 ng/mL).
Outline: as §1

Row | Binder | OD value
16 | B1 | 0.082 OD
17 | B2 | 0.076 OD
18 | B3 | 4.25 OD

Each binder was assayed against T1, recombinant human regenerating … (assay: sandwich ELISA; capture 12F12A10; REG1A 0 ng/mL (blank)).
Outline: as §1

Row | Binder | OD value
19 | B1 | 0.068 OD
20 | B2 | 0.075 OD
21 | B3 | 0.089 OD

These binders were tested against T1, recombinant human regenerating … (assay: sandwich ELISA; capture 21B11D2; REG1A 100.00 ng/mL).
Outline: as §1

Row | Binder | OD value
22 | B1 | 0.084 OD
23 | B2 | 0.075 OD
24 | B3 | 4.65 OD

These binders were tested against T1, recombinant human regenerating … (assay: sandwich ELISA; capture 12F12A10; REG1A 33.33 ng/mL).
Outline: as §1

Row | Binder | OD value
25 | B1 | 3.27 OD
26 | B2 | 3.03 OD
27 | B3 | 0.098 OD

These binders were tested against T1, recombinant human regenerating … (assay: sandwich ELISA; capture 4H8F1; REG1A 0 ng/mL (blank)).
Outline: as §1

Row | Binder | OD value
28 | B1 | 0.074 OD
29 | B2 | 0.21 OD
30 | B3 | 0.088 OD

What follows are binders tested against T1, recombinant human regenerating … (assay: sandwich ELISA; capture 25F3C4; REG1A 11.11 ng/mL).
Outline: as §1

Row | Binder | OD value
31 | B1 | 0.078 OD
32 | B2 | 0.079 OD
33 | B3 | 4.37 OD

The binders below were run against T1, recombinant human regenerating … (assay: sandwich ELISA; capture 4H8F1; REG1A 11.11 ng/mL).
Outline: as §1

Row | Binder | OD value
34 | B1 | 0.081 OD
35 | B2 | 4.1 OD
36 | B3 | 4.22 OD

What follows are binders tested against T1, recombinant human regenerating … (assay: sandwich ELISA; capture 11D11B11; REG1A 1.23 ng/mL).
Outline: as §1

Row | Binder | OD value
37 | B1 | 1.37 OD
38 | B2 | 0.066 OD
39 | B3 | 1.05 OD

The binders below were run against T1, recombinant human regenerating … (assay: sandwich ELISA; capture 11D11B11; REG1A 33.33 ng/mL).
Outline: as §1

Row | Binder | OD value
40 | B1 | 4.48 OD
41 | B2 | 0.064 OD
42 | B3 | 4.08 OD

What follows are binders tested against T1, recombinant human regenerating … (assay: sandwich ELISA; capture 21B11D2; REG1A 0 ng/mL (blank)).
Outline: as §1

Row | Binder | OD value
43 | B1 | 0.075 OD
44 | B2 | 0.074 OD
45 | B3 | 0.09 OD

These binders were tested against T1, recombinant human regenerating … (assay: sandwich ELISA; capture 21B11D2; REG1A 1.23 ng/mL).
Outline: as §1

Row | Binder | OD value
46 | B1 | 0.078 OD
47 | B2 | 0.089 OD
48 | B3 | 3.9 OD

Each binder was assayed against T1, recombinant human regenerating … (assay: sandwich ELISA; capture 4H8F1; REG1A 1.23 ng/mL).
Outline: as §1

Row | Binder | OD value
49 | B1 | 0.074 OD
50 | B2 | 2.46 OD
51 | B3 | 2.99 OD

These binders were tested against T1, recombinant human regenerating … (assay: sandwich ELISA; capture 21B11D2; REG1A 11.11 ng/mL).
Outline: as §1

Row | Binder | OD value
52 | B1 | 0.073 OD
53 | B2 | 0.077 OD
54 | B3 | 4.23 OD

These binders were tested against T1, recombinant human regenerating … (assay: sandwich ELISA; capture 12F12A10; REG1A 1.23 ng/mL).
Outline: as §1

Row | Binder | OD value
55 | B1 | 1.3 OD
56 | B2 | 0.934 OD
57 | B3 | 0.098 OD

The binders below were run against T1, recombinant human regenerating … (assay: sandwich ELISA; capture 11D11B11; REG1A 100.00 ng/mL).
Outline: as §1

Row | Binder | OD value
58 | B1 | 4.24 OD
59 | B2 | 0.064 OD
60 | B3 | 4.22 OD

Each binder was assayed against T1, recombinant human regenerating … (assay: sandwich ELISA; capture 12F12A10; REG1A 11.11 ng/mL).
Outline: as §1

Row | Binder | OD value
61 | B1 | 3.05 OD
62 | B2 | 2.69 OD
63 | B3 | 0.088 OD

These binders were tested against T1, recombinant human regenerating … (assay: sandwich ELISA; capture 12F12A10; REG1A 100.00 ng/mL).
Outline: as §1

Row | Binder | OD value
64 | B1 | 3.18 OD
65 | B2 | 3.15 OD
66 | B3 | 0.096 OD

Each binder was assayed against T1, recombinant human regenerating … (assay: sandwich ELISA; capture 25F3C4; REG1A 33.33 ng/mL).
Outline: as §1

Row | Binder | OD value
67 | B1 | 0.085 OD
68 | B2 | 0.083 OD
69 | B3 | 4.29 OD

Each binder was assayed against T1, recombinant human regenerating … (assay: sandwich ELISA; capture 11D11B11; REG1A 3.70 ng/mL).
Outline: as §1

Row | Binder | OD value
70 | B1 | 2.87 OD
71 | B2 | 0.066 OD
72 | B3 | 2.81 OD

What follows are binders tested against T1, recombinant human regenerating … (assay: sandwich ELISA; capture 12F12A10; REG1A 3.70 ng/mL).
Outline: as §1

Row | Binder | OD value
73 | B1 | 2.42 OD
74 | B2 | 1.54 OD
75 | B3 | 0.088 OD

Each binder was assayed against T1, recombinant human regenerating … (assay: sandwich ELISA; capture 21B11D2; REG1A 33.33 ng/mL).
Outline: as §1

Row | Binder | OD value
76 | B1 | 0.078 OD
77 | B2 | 0.077 OD
78 | B3 | 4.59 OD

These binders were tested against T1, recombinant human regenerating … (assay: sandwich ELISA; capture 4H8F1; REG1A 3.70 ng/mL).
Outline: as §1

Row | Binder | OD value
79 | B1 | 0.079 OD
80 | B2 | 3.74 OD
81 | B3 | 3.84 OD

What follows are binders tested against T1, recombinant human regenerating … (assay: sandwich ELISA; capture 11D11B11; REG1A 11.11 ng/mL).
Outline: as §1

Row | Binder | OD value
82 | B1 | 3.87 OD
83 | B2 | 0.072 OD
84 | B3 | 3.9 OD

The binders below were run against T1, recombinant human regenerating … (assay: sandwich ELISA; capture 11D11B11; REG1A 0 ng/mL (blank)).
Outline: as §1

Row | Binder | OD value
85 | B1 | 1.21 OD
86 | B2 | 0.079 OD
87 | B3 | 0.083 OD

These binders were tested against T1, recombinant human regenerating … (assay: sandwich ELISA; capture 21B11D2; REG1A 3.70 ng/mL).
Outline: as §1

Row | Binder | OD value
88 | B1 | 0.077 OD
89 | B2 | 0.069 OD
90 | B3 | 4.59 OD
